Data reported in patent US20030229005A1 (BIOZYME, published 2003).
*1 amine or outer side, *2 acyl side, *3 side chain or, on linkers, in order; H or OH if unused. [ ]: non-standard residue; d: D form. The star is where a group is joined. Dnp = O=[N+]([O-])c1ccc(*)c([N+](=O)[O-])c1; C(Me) = CSC[C@H](N[*:1])C(=O)[*:2]

T1: human Gelatinase-A (human, UniProt P08253 110-660, limits assumed)
T1 sequence (looked up): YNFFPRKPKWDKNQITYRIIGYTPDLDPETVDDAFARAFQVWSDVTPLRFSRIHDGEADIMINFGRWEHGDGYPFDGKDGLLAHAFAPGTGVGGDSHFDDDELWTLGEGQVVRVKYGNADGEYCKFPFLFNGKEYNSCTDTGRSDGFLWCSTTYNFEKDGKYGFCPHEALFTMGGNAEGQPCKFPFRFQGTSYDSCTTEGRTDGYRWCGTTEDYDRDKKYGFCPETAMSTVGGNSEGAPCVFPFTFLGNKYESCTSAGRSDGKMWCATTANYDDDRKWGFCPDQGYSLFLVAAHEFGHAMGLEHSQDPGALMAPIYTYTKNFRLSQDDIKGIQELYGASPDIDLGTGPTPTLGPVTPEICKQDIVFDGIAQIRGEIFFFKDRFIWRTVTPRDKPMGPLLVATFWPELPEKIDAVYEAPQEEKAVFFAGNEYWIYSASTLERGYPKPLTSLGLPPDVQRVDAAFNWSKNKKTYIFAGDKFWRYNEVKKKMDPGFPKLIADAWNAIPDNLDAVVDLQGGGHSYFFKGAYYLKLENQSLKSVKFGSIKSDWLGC

T2: collagenase 1 (UniProt P03956 100-469, limits assumed)
T2 sequence (looked up): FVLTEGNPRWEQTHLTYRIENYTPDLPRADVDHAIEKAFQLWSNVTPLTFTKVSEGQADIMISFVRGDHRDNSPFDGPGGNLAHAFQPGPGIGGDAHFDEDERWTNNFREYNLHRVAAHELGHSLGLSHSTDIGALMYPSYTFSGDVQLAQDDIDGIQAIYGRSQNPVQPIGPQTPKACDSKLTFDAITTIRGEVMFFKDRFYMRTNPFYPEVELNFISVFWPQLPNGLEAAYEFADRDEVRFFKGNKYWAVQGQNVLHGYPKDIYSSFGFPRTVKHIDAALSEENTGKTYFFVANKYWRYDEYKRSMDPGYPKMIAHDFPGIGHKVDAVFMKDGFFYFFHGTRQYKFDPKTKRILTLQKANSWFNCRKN


Columns and labels:
Experiment in all cases: cell-based or functional assay
human Gelatinase-A = target: T1, human Gelatinase-A
gelatinase B = gelatinase B (UniProt P14780 107-707, limits assumed)
Sequence of gelatinase B (P14780 107-707 limits assumed): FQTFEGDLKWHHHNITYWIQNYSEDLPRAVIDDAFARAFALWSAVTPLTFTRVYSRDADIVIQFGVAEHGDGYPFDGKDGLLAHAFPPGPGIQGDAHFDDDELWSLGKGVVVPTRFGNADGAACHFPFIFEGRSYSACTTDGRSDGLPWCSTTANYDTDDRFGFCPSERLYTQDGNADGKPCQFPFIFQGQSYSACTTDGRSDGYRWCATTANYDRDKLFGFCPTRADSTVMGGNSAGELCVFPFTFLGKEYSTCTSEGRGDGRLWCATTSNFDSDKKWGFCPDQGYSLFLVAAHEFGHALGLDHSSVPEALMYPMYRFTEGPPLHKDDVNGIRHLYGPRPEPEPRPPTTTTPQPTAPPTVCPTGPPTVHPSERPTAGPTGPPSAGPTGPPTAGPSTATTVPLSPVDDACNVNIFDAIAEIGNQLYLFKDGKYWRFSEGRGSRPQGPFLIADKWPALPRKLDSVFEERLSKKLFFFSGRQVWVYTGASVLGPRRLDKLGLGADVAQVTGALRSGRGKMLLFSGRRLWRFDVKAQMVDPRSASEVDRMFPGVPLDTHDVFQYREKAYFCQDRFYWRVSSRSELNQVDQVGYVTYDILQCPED

collagenase 1 = target: T2, collagenase 1
stromelysin 1 = stromelysin 1 (UniProt P08254 100-477, limits assumed)
Sequence of stromelysin 1 (P08254 100-477 limits assumed): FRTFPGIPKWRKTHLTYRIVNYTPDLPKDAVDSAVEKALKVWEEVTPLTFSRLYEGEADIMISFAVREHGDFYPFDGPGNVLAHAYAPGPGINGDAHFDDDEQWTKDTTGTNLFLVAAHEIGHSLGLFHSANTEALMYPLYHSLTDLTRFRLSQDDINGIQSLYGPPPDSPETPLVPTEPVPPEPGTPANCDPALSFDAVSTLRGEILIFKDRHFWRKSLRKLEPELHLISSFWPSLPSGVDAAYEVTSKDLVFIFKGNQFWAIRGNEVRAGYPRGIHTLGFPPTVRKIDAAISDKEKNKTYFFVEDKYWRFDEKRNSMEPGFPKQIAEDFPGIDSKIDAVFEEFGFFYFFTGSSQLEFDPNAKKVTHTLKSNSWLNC

| Selectivity v. Coll-3 (human Gelatinase-A) [unitless] | Selectivity v. Coll-3 (gelatinase B) [unitless] | Selectivity v. Coll-3 (collagenase 1) [unitless] | Selectivity v. Coll-3 (stromelysin 1) [unitless] | Binder |
| --- | --- | --- | --- | --- |
| 37 | 82 | 5790 | 448 | Dnp-GPAPFRV[C(Me)]-NH2 (SMILES CSC[C@H](NC(=O)[C@@H](NC(=O)[C@H](CCCNC(=N)N)NC(=O)[C@H](Cc1ccccc1)NC(=O)[C@@H]1CCCN1C(=O)[C@H](C)NC(=O)[C@@H]1CCCN1C(=O)CNc1ccc([N+](=O)[O-])cc1[N+](=O)[O-])C(C)C)C(N)=O) [Dnp-GPAPFRVC(Me)-NH2] |
| 12 | 10 | 473 | 620 | Dnp-GPAPLHG[C(Me)]-NH2 (SMILES CSC[C@H](NC(=O)CNC(=O)[C@H](Cc1c[nH]cn1)NC(=O)[C@H](CC(C)C)NC(=O)[C@@H]1CCCN1C(=O)[C@H](C)NC(=O)[C@@H]1CCCN1C(=O)CNc1ccc([N+](=O)[O-])cc1[N+](=O)[O-])C(N)=O) [Dnp-GPAPLHGC(Me)-NH2] |
| 16 | 8 | 429 | 814 | Dnp-GPLPFRG[C(Me)]-NH2 (SMILES CSC[C@H](NC(=O)CNC(=O)[C@H](CCCNC(=N)N)NC(=O)[C@H](Cc1ccccc1)NC(=O)[C@@H]1CCCN1C(=O)[C@H](CC(C)C)NC(=O)[C@@H]1CCCN1C(=O)CNc1ccc([N+](=O)[O-])cc1[N+](=O)[O-])C(N)=O) [Dnp-GPLPFRGC(Me)-NH2] |
| 36 | 21 | 550 | 332 | Dnp-GPLPFRV[C(Me)]-NH2 (SMILES CSC[C@H](NC(=O)[C@@H](NC(=O)[C@H](CCCNC(=N)N)NC(=O)[C@H](Cc1ccccc1)NC(=O)[C@@H]1CCCN1C(=O)[C@H](CC(C)C)NC(=O)[C@@H]1CCCN1C(=O)CNc1ccc([N+](=O)[O-])cc1[N+](=O)[O-])C(C)C)C(N)=O) [Dnp-GPLPFRVC(Me)-NH2] |
| 10 | 13 | 2430 | 1390 | Dnp-GPSPFRG[C(Me)]-NH2 (SMILES CSC[C@H](NC(=O)CNC(=O)[C@H](CCCNC(=N)N)NC(=O)[C@H](Cc1ccccc1)NC(=O)[C@@H]1CCCN1C(=O)[C@H](CO)NC(=O)[C@@H]1CCCN1C(=O)CNc1ccc([N+](=O)[O-])cc1[N+](=O)[O-])C(N)=O) [Dnp-GPSPFRGC(Me)-NH2] |
| 12 | 11 | 126 | 264 | Dnp-GPAPLHV[C(Me)]-NH2 (SMILES CSC[C@H](NC(=O)[C@@H](NC(=O)[C@H](Cc1c[nH]cn1)NC(=O)[C@H](CC(C)C)NC(=O)[C@@H]1CCCN1C(=O)[C@H](C)NC(=O)[C@@H]1CCCN1C(=O)CNc1ccc([N+](=O)[O-])cc1[N+](=O)[O-])C(C)C)C(N)=O) [Dnp-GPAPLHVC(Me)-NH2] |
| 32 | 26 | 182 | 12700 | Dnp-GPLGLHV[C(Me)]-NH2 (SMILES CSC[C@H](NC(=O)[C@@H](NC(=O)[C@H](Cc1c[nH]cn1)NC(=O)[C@H](CC(C)C)NC(=O)CNC(=O)[C@H](CC(C)C)NC(=O)[C@@H]1CCCN1C(=O)CNc1ccc([N+](=O)[O-])cc1[N+](=O)[O-])C(C)C)C(N)=O) [Dnp-GPLGLHVC(Me)-NH2] |
| 20 | 10 | 36 | 986 | Dnp-GPLPLHG[C(Me)]-NH2 (SMILES CSC[C@H](NC(=O)CNC(=O)[C@H](Cc1c[nH]cn1)NC(=O)[C@H](CC(C)C)NC(=O)[C@@H]1CCCN1C(=O)[C@H](CC(C)C)NC(=O)[C@@H]1CCCN1C(=O)CNc1ccc([N+](=O)[O-])cc1[N+](=O)[O-])C(N)=O) [Dnp-GPLPLHGC(Me)-NH2] |
| 10 | 17 | 1430 | 35700 | Dnp-GPSGIHV-NH2 (SMILES CC[C@H](C)[C@H](NC(=O)CNC(=O)[C@H](CO)NC(=O)[C@@H]1CCCN1C(=O)CNc1ccc([N+](=O)[O-])cc1[N+](=O)[O-])C(=O)N[C@@H](Cc1c[nH]cn1)C(=O)N[C@H](C(N)=O)C(C)C) [Dnp-GPSGIHV-NH2] |
| 31 | 4 | 39 | 1000 | Dnp-VTPYNMRG-NH2 (SMILES CSCC[C@H](NC(=O)[C@H](CC(N)=O)NC(=O)[C@H](Cc1ccc(O)cc1)NC(=O)[C@@H]1CCCN1C(=O)[C@@H](NC(=O)[C@@H](Nc1ccc([N+](=O)[O-])cc1[N+](=O)[O-])C(C)C)[C@@H](C)O)C(=O)N[C@@H](CCCNC(=N)N)C(=O)NCC(N)=O) [Dnp-VTPYNMRG-NH2] |
| 32 | 7 | 3680 | 700 | Dnp-GPLQFRG-NH2 (SMILES CC(C)C[C@H](NC(=O)[C@@H]1CCCN1C(=O)CNc1ccc([N+](=O)[O-])cc1[N+](=O)[O-])C(=O)N[C@@H](CCC(N)=O)C(=O)N[C@@H](Cc1ccccc1)C(=O)N[C@@H](CCCNC(=N)N)C(=O)NCC(N)=O) [Dnp-GPLQFRG-NH2] |
| 7 | 3 | 1570 | 13200 | Dnp-GPKGMRG-NH2 (SMILES CSCC[C@H](NC(=O)CNC(=O)[C@H](CCCCN)NC(=O)[C@@H]1CCCN1C(=O)CNc1ccc([N+](=O)[O-])cc1[N+](=O)[O-])C(=O)N[C@@H](CCCNC(=N)N)C(=O)NCC(N)=O) [Dnp-GPKGMRG-NH2] |
| 16 | 6 | 212 | 404 | Dnp-GPYGMRA-NH2 (SMILES CSCC[C@H](NC(=O)CNC(=O)[C@H](Cc1ccc(O)cc1)NC(=O)[C@@H]1CCCN1C(=O)CNc1ccc([N+](=O)[O-])cc1[N+](=O)[O-])C(=O)N[C@@H](CCCNC(=N)N)C(=O)N[C@@H](C)C(N)=O) [Dnp-GPYGMRA-NH2] |
| 6 | 2 | 548 | 37000 | Dnp-GPKGITS-NH2 (SMILES CC[C@H](C)[C@H](NC(=O)CNC(=O)[C@H](CCCCN)NC(=O)[C@@H]1CCCN1C(=O)CNc1ccc([N+](=O)[O-])cc1[N+](=O)[O-])C(=O)N[C@H](C(=O)N[C@@H](CO)C(N)=O)[C@@H](C)O) [Dnp-GPKGITS-NH2] |
| 21 | 5 | 688 | 191 | Dnp-GPLSFQG-NH2 (SMILES CC(C)C[C@H](NC(=O)[C@@H]1CCCN1C(=O)CNc1ccc([N+](=O)[O-])cc1[N+](=O)[O-])C(=O)N[C@@H](CO)C(=O)N[C@@H](Cc1ccccc1)C(=O)N[C@@H](CCC(N)=O)C(=O)NCC(N)=O) [Dnp-GPLSFQG-NH2] |
| 65 | 6 | 45 | 590 | Dnp-GPLSIQD-NH2 (SMILES CC[C@H](C)[C@H](NC(=O)[C@H](CO)NC(=O)[C@H](CC(C)C)NC(=O)[C@@H]1CCCN1C(=O)CNc1ccc([N+](=O)[O-])cc1[N+](=O)[O-])C(=O)N[C@@H](CCC(N)=O)C(=O)N[C@@H](CC(=O)O)C(N)=O) [Dnp-GPLSIQD-NH2] |
| 17 | 8 | 3350 | 2300 | Dnp-GPHPFRG-NH2 (SMILES N=C(N)NCCC[C@H](NC(=O)[C@H](Cc1ccccc1)NC(=O)[C@@H]1CCCN1C(=O)[C@H](Cc1c[nH]cn1)NC(=O)[C@@H]1CCCN1C(=O)CNc1ccc([N+](=O)[O-])cc1[N+](=O)[O-])C(=O)NCC(N)=O) [Dnp-GPHPFRG-NH2] |
